Test results: a protein production outcome set (Wang et al. 2014)

Assay: label from the status in PepcDB records

Sequence	protein production
MNIVSWKDANDEVAGGATTRREREVKEDQEETEVRATSGKTVIKKQPTSISSSSSSWMKSKDPRIVRVSRAFGGKDRHSKVCTLRGLRDRRVRLSVPTAIQLYDLQERLGVDQPSKAVDWLLDAAKEEIDELPPLPISPENFSIFNHHQSFLNLGQRPGQDPTQLGFKINGCVQKSTTTSREENDREKGENDVVYTNNHHVGSYGTYHNLEHHHHHHQHLSLQADYHSHQLHSLVPFPSQILVCPMTTSPTTTTIQSLFPSSSSAGSGTMETLDPRQMVSHFQMPLMGNSSSSSSQNISTLYSLLHGSSSNNGGRDIDNRMSSVQFNRTNSTTTANMSRHLGSERCTSRGSDHHM	failed
MNKFLRVLFILVILAMTDAIIFQLFFPTYMGSHSGYGISVGWQREIGIWNVTVLVILITVNLKYDWFYLRAVLMALIIGGLGIGTNHFLSYLQYRHSVNAIGALENYLLVLGWIIGWWLENSSRKRV	failed
MNKFVKSLLVAGSVAALAACSSSNNDAAGNGAAQTFGGYSVADLQQRYNTVYFGFDKYDITGEYVQILDAHAAYLNATPAAKVLVEGNTDERGTPEYNIALGQRRADAVKGYLAGKGVDAGKLGTVSYGEEKPAVLGHDEAAYSKNRRAVLAY	not failed
MNKKIFYITILLHLPNLLFSYSTKYDIEVKMSAFVMSLAIIVISSISIGNLVAKIGIPKVIGQITAGIILSPNAFGKIQIPLLFPLGITQIGENYLINEKIFAISTIASIILLFTAGLETDLKLFIKFLPRGGIIGITEVVGTFTSFVLMASIIFNVPLISPTSLFIGIIGTPTSAGIAASILSAKKKMSTSEGVTIISTSIIDDVLSMLMLTSVITISRSISDLDIASSIKAIVQNIVIWLCLTFSLIYISETLSRLLKKLNSVTLATVITLSLALTIASIFQNLGMSFVVGAYVFGLAMSKTDIVYVIQDKLTIFERFFIPIFFTSIGLMSDINEILSKEVLILGLAISAIAIITKSIFCFIPALFLGFNKLGALKIATGMVPRGEVSLIMANVALSSGFISQKIFGIIIIMVFLPTIIATPIINFLFKINKSGLKKELPIDQNTHICVSFEYDNLAKILIWDFKNELRKEGFFTQQIKNDSSQYINARKNNISFSIKREGSKITFECPNNHLIIIQDLFRETILNLEKITKEVETVSLRAKKLDYSINYDKILSNINLNKRIKKENIILELKSSNKADVIRELLSVINIEIDKERIFQDLMEREKLITTALKEGFAIPHLKTNLISKIHIAIGISHEGIDFNALDKNLSHVFILILCPAKDYVSYPRILASVVGKVDLYKKEILNAKTDKEIYNIIVS	failed
MNKKILATAVLGTGALSTLFAHQAEASTTHTVRSGESLWSISHHYGITVSKLKSLNGLSSNLIFPNQVLKVSGSSNYSSRSNYGNSSSTYTVRAGDSLSSIASRYGTTYRHIMNLNGLNSFLIFPGQQLKVSGSVSSNSHSSYNSNSGGSSSTYTVRYGDSLSSIASRYGTTYQHIMRLNGLNNFFIYPGQKLRVSGSASSNTYSTRSAQSTYYSSPVFNHRNLYDWGQCTWHVFNRRAAIGKGISTYWWNANNWDNAAARDGYRIDGNPTVGSIAQSDAGYYGHVAFVERVNSNGSILVSEMNFSASPGILTYRTIPAYQVRNYKFIH	failed
MNKKKFENLPKWNNFALFNFLAKDKENSLEVMEASRGFAVPGIVATNYETAEEAANVVKELQTTAPVISVGLGGGGDWQNWRDVLHIARLAPNSHINQPIETAGLTNDLLPETYTNALVRPTGKVGIVKLSSGDEITAEEAVDYCLSANIPSIKFMSIEGTKYLDELVYLTKVAAEKGIYGIEPAGGIGAENILEITTAIKTTGIPFFMPHIFGKTIDKATGRTKPEEIEKIFAALEGK	failed
MNKLDGIPIPKTYGPLGNLPLLDKNRVSQSLWKIADEMGPIFQFKFADAIGVFVSSHELVKEVSEESRFDKNMGKGLLKVREFSGDGLFTSWTEEPNWRKAHNILLPSFSQKAMKGYHPMMQDIAVQLIQKWSRLNQDESIDVPDDMTRLTLDTIGLCGFNYRFNSFYREGQHPFIESMVRGLSEAMRQTKRFPLQDKLMIQTKRRFNSDVESMFSLVDRIIADRKQAESESGNDLLSLMLHAKDPETGEKLDDENIRYQIITFLIAGHETTSGLLSFAIYLLLKHPDKLKKAYEEADRVLTDPVPSYKQVQQLKYIRMILNESIRLWPTAPAFSLYAKEETVIGGKYLIPKGQSVTVLIPKLHRDQSVWGEDAEAFRPERFEQMDSIPAHAYKPFGNGQRACIGMQFALHEATLVLGMILQYFDLEDHANYQLKIKESLTLKPDGFTIRVRPRKKEAMTAMPGAQPEENGRQEERPSAPAAENTHGTPLLVLYGSNLGTAEEIAKELAEEAREQGFHSRTAELDQYAGAIPAEGAVIIVTASYNGNPPDCAKEFVNWLEHDQTDDLRGVKYAVFGCGNRSWASTYQRIPRLIDSVLEKKGAQRLHKLGEGDAGDDFEGQFESWKYDLWPLLRTEFSLAEPEPNQTETDRQALSVEFVNAPAASPLAKAYQVFTAKISANRELQCEKSGRSTRHIEISLPEGAAYQEGDHLGVLPQNSEVLIGRVFQRFGLNGNEQILISGRNQASHLPLERPVHVKDLFQHCVELQEPATRAQIRELAAHTVCPPHQRELEDLLKDDVYKDQVLNKRLTMLDLLEQYPACELPFARFLALLPPLKPRYYSISSSPQLNPRQTSITVSVVSGPALSGRGHYKGVASNYLAGLEPGDAISCFIREPQSGFRLPEDPETPVIMVGPGTGIAPYRGFLQARRIQRDAGVKLGEAHLYFGCRRPNEDFLYRDELEQAEKDGIVHLHTAFSRLEGRPKTYVQDLLREDAALLIHLLNEGGRLYVCGDGSRMAPAVEQALCEAYRIVQGASREESQSWLSALLEEGRYAKDVWDGGVSQHNVKADCIART	failed
MNKLNIKEYKTKAGEVRYILRGAYIGTDVLTGKQIKTDIRGRTKTGVKNELERLKNNFKKNGNTKGKESLETFEEVAESFFELYKLQRKIGSIDQMRSNLDNYTLPAFGNKRISKITTAQIQQQVIKWGKSAAAPLNGRQKRTTGQAKRYKLQFNIINRIFQHALSLGIIENNPCQSVIVPQVKVEQAKKEIKFYKKSELAKLFNYLESLKSGQWSNEYFKALLRLLVASGLRIGEAMALSWSDINFQNQTVSVSKTTVRRFQIQDTPKSNKSNRIISIDDKAIYVLKSWYFFQKKHFMKLGNPQQNLVFPKIEGGVMDYHNLIYKLNNIIKNAELPLLSFHGFRRSHASLCLNAEMSYKVIQERLGHSKLQLTMDLYSHLEPEKKNKELELFTKYANF	failed
MNKQFIILYFNIFLVFLGIGLVVPVLPVYLKDLGLKGSDLGILVAVFALAQMIISPFGGTLADKLGKKLIICIGLGLFAISEFLFAASHTFSLLIVSRILGGFSAGMVMPGVTGMIADISVGRDKAKNFGYMSAIINSGFILGPGMGGFLAEFSHRLPFYVAGFSGCVALILSIALIKNPKNSTQDGFTQYQPELLSKINWKVFLTPIILTLVLAFGLSAFETLFPLYTADKAHYSPLDISFAITGGGIAGAIFQVFFFDKFMKHFKELTFITYALLYSAIILLALTFVHSYWSIMIISFIVFIGFDMIRPAITNYFSNIAGNRQGFAGGLNSTFTSMGNFIGPLVAGTLYDINFEFPLYMSVLVMVLGMFVIFIEKMIRSRFSNI	failed
MNKQVIVRSACLALFVGLAGGCATGPGGGSIYVPVGSDDRRSAPEPPRTNIPDEQDEQVWRKSEQPTVTEPDSPSTRAPSYSESGDQLPAAALTLVRDADQRLRQGDSAGAIARLERAQRIAPRSSEVYFKLAEAYVAGDNLGAAEQFTLKGLSLAGNDERMQRSGWLLLADIRRARGNVAGADQAEARAAAL	failed
MNKVITDLDKALSALKDGDTILVGGFGLCGIPEYAIDYIYKKGIKDLIVVSNNCGVDDFGLGILLEKKQIKKIIASYVGENKIFESQMLNGEIEVVLTPQGTLAENLHAGGAGIPAYYTPTGVGTLIAQGKESREFNGKEYILERAITGDYGLIKAYKSDTLGNLVFRKTARNFNPLCAMAAKICVAEVEEIVPAGELDPDEIHLPGIYVQHIYKGEKFEKRIEKITTRSTK	failed
MNKYLSFIFASVLTLTGVQLSKASNPSDSLAIVSAKWERTSSLQGIQLKQASIEGLFGGKQSISILTIGRAEGYTAFIATTDSLTTTSQLAEQSRSSAAINGSYFSIKEGFSTCYLRKNEAVIDTTTTEERHLRVNGAVHMVDNNIRIIPWNDENEKKGFPLDGDILASGPLLMQDGKTCDFTTIDREFSETRHPRSAIALTKEGDIMLVAVDGRAEGHADGMSIAELAYLLRILKAHCALNLDGGGSTTLWVNGQVVNHPSDNKKFDNKGERKVHNIIAVRRLTNP	failed
MNLAKGLDVLKISSNVLGEDKVMYIPAIYTEDDATLIDTGLPGQGDLIIDALNKSNTSFDRLKNIIITHHDIDHIGNINYLREKSKNNIKVYAYKSEVSYITGEETPFKLYMLEQMVDKIDDKMLSMLNVMGLGFKSSYTKVDVSLDNHEKLNLGEEIEVIHTGGHTRGHICLYLKESKVLIAGDLLQVENGELKPVDVMHSNKQELKDAIKNISNYDIETIVFSHGGLYQRNIIETLKNLIIE	failed
MNLAVTVLEIVAPVFLLAAVGFGWVRMGFEYRLQFVTRLGTMLAVPCLIFVALMKTEIPGGDLSRFTLASALAILALTVVFGLIVRFSGLDRRTYLPPLLFGNTGNLGLPLCMFAFGIEGLSYAVVFFSLSALWSFSYGIHVVAGQGSLSKVVREPMVWATLLGALFLSQDWQTPRFLTNALELIGQMAVPLMLITLGVAMARLSIRRIGQALGLSLLKLAICFPVGWLVAQGFGLSGPALGVLVVQMSVPAAVSAYLLAERFGADADAVAGMVMVSTLLAVGALPLVLAAVL	failed
MNLAYETQSIAERREQLREEGKIELPLNVDTRKYLLSFIRYRDVLISLPLLIAGIVALYIIHRTGIGINSQNVIVCFAPWATFLLLLTIQHPDRKNISFFEHRIVWRIKYNNRQKLFVYTKGDLMGNKKEKDVREQLGISNIYSDCYETTDKRLVKVIKVSSINLSLLNNKEKRMIFQAYETFLNDLPKNLTLQISQIAQPVNLKNYFLFIQEKTSREQDMAKKLLAKGYLDFIDDIQKSKNMVSRNRYVIISKPFTAQNRESVLEELDRQAKILVSQIENMLGGRFQLKAEILNNEELFHLIYTCVDYENAQVNAEIKTSTFPITLGKETYIEMKKRWEKEVTEKII	failed
MNLCGDSEILKEDDNTKNFARKNPDPYPPTGTSLVYLDHLELCLCSTEWWNLLTCILDDAPKLRVLKLKLYRKHCVEYNESMEPWKQPDYVPICLSSYLEIFEWRQYNGEEQEREVAKYILENASRLKKAIFYLESAEKHGILKELECMARGSKKCQLVFD	failed
MNLDKVNKYIKDFEKTIKKPKINFDKSKFYVGVDLGTANIVITILDKDGKPVAGVTQRSRVVRDGIVVDFMEAIEIVRKLKENLEKKLGIEITEGYTAIPPGVEQGSVRAIVNVIESAGIDVLKVVDEPTAASYVLGITDGVVVDLGGGTTGISILEKGKVIFVADEPTGGTHMTLVLAGSYGIDFETAEDIKTDKKKEKEVFVQITPVLQKMAAIVKKYIKDYKVKDVFLVGGACSFDGSESIFERELGLNIYKPYMPVYITPLGIALAGMKSLEHHHHHH	not failed
MNLEHHSNHYQPTCSIEALQARAKLYQTIRTFFAERGVLEVETPIISQAGVTDVHLASVKALRHIEGKERTQYLQTSPEFAMKRLLASGSGPIYQLCKVFRDDEHGRKHNSEFTMLEWYRPEFDLKDLMHETADLLETCLKQRFDEIRPMILSYKHAFQDRLEINPLQATLKQLKDTADRVGLNLDLGNDRLAYIDLLFSHIVEPSLGFDTPVFLTDFPPEMASLAKVRIDEDGEEVAARFEVYIEGLELANAYDELLDANILRARFEADNLERKLQGLAEMPLDENLLAALPHMPACAGIALGVDRLLMIATRQLKIEQVIAFPAAIA	failed
MNLEPPKAEIRSATRVMGGPVTPRKGPPKFKQRQTRQFKSKPPKKGVQGFGDDIPGMEGLGTDITVICPWEAFNHLELHELAQYGII	not failed
